In patent US20220127354A1 (Amgen, published 2022):
Substitutions are numbered along the chain they refer to. Names and notes keep the numbering of the source.

T1: raCDH19(1-43)::FLAG::raCDH19(44-770) (construct W, Ra EC1-5) (rat)
T1 construct: leader (1-43 of the entry) left out; also called rat Cadherin19
T1 chain: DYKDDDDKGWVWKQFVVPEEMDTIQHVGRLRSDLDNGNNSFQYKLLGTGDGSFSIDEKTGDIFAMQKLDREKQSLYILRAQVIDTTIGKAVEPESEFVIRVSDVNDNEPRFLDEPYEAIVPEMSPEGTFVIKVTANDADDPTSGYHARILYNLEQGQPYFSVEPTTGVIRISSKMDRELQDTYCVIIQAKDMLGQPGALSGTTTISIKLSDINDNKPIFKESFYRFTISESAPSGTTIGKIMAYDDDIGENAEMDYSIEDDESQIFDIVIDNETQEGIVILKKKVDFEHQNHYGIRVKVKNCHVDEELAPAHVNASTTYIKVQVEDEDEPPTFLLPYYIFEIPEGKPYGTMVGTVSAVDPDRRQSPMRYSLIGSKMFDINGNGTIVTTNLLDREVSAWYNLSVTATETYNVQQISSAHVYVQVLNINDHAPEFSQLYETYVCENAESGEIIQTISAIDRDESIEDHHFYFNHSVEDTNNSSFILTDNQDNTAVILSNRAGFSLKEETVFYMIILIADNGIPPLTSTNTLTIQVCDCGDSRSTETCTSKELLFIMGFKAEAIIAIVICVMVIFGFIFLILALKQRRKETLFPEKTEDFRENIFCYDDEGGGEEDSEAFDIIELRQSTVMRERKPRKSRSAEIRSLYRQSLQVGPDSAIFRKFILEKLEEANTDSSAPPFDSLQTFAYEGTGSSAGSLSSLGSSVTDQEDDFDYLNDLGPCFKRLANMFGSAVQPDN

T2: rhCDH19(1-43)::FLAG::rhCDH19(44-772) (construct P, Rh EC1-5) (rhesus macaque, UniProt Q9H159 44-772 (human entry))
T2 construct: leader (1-43 of the entry) left out; also called rhesus macaque Cadherin19
T2 chain: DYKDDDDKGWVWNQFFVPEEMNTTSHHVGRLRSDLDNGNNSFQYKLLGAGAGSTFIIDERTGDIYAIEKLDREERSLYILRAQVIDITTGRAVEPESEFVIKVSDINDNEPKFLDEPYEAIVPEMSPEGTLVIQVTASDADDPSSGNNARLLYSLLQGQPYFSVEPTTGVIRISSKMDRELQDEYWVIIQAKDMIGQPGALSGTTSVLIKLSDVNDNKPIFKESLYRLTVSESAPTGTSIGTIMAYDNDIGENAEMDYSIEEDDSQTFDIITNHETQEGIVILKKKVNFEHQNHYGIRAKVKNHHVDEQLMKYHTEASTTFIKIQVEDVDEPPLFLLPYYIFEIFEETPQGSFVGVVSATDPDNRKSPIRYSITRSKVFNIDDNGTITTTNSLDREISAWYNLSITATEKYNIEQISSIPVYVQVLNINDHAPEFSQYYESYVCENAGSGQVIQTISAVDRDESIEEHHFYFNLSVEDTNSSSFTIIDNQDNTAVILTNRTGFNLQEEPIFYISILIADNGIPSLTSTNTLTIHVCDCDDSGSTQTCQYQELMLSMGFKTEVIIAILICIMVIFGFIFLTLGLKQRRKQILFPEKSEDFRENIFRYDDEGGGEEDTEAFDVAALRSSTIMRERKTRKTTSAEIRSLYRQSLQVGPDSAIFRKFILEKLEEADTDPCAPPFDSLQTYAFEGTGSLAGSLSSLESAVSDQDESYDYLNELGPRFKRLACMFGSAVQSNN

T3: muCDH19(44-770) with Flag tag (construct I, Mu EC1-5) (mouse)
T3 construct: leader left out; the entry starts at residue 44; also called Mo EC1-5; mouse Cadherin19
T3 chain: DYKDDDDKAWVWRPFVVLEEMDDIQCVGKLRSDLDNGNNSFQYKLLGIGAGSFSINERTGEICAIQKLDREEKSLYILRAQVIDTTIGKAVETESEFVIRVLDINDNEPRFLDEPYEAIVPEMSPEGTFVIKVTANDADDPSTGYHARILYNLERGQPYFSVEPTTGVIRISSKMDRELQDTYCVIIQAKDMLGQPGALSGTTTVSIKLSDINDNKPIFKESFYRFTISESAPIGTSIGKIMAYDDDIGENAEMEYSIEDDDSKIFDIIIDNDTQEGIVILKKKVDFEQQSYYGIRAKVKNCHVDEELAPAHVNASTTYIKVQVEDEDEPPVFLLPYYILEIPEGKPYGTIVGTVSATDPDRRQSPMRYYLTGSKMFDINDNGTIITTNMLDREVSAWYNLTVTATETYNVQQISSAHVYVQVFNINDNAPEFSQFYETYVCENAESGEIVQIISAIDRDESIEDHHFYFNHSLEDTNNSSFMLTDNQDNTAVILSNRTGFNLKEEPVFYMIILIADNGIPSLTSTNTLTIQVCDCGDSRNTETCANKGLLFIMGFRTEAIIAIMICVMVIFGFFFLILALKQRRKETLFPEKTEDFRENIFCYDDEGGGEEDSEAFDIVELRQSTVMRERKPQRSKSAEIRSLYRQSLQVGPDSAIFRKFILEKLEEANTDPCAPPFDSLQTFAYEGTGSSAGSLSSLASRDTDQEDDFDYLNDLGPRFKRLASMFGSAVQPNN

B1: anti-CDH19 antibody 2G6 (Ab ID 13588) (antibody, human IgG1, lambda, V domains shown)
VH: QVQLVESGGGVVQPGRSLRLSCAASGFTFSSYGMHWVRQAPGKGLEWVAFIWYDGSNKYYADSVKDRFTISRDNSKNTLYLQMKSLRAEDTAVYYCARRAGIIGTIGYYYGMDVWGQGTTVTVSS
VL: SYELTQPPSVSVSPGQTASITCSGDRLGEKYTCWYQQRPGQSPLLVIYQDTKRPSGIPERFSGSNSGNTATLTISGTQAMDEADYYCQAWDSSTVVFGGGTKLTVLG
notes: Bin 4
B2: hu anti-<huCDH19> 23A10.3 (1-474)(L92Q) VH::huIgG1z + 23A10.3 (1-231)(C42S) VL::huLLC-C2 (Ab ID 14077) (antibody, V domains shown)
VH: B1 VH with S31R, M34I, F50V, D66G, K84N, T91S, I103P, I106T
VL: B1 VL with T32V, C33S, R38K, L44I, T51N, R53W
notes: Engineered variant of 23A10; the entries already carry the changes; Bin 4
B3: hu anti-<huCDH19> 4A9 (Ab ID 13589) (antibody, human IgG1, lambda, V domains shown)
VH: QVQLQESGPGLVKPSETLSLTCTVSGGSISGYYWSWIRQPPGKGLEWFAYFSYSGSTNYNPSLKSRVTLSVDTSKNQFSLKLSSVTAADTAVYYCARNWAFHFDFWGQGTLVTVSS
VL: QSVLTQPPSVSGAPGQRVTISCTGSSSNIGTGYAVHWYQQFPGTAPKLLIYGNNNRPSGVPDRFSGSKSGTSASLAITGLQAEDEADYYCQSYDSRLSGWVFGGGTKLTVLG
notes: huIgG1z / huLLC-C1; Bin 1
B4: anti-CDH19 antibody 4A2 (Ab ID 13592) (antibody, human IgG1, kappa, V domains shown)
VH: QVQLQESGPGLVKPSQTLSLTCTVSGGSISSSGYYWSWIRQHPGKGLEWIGYIYYTGSAYYNPSLKSRVTISVDTSKNQFSLKLSSVTAADTAVYYCARDGSSGWYFQYWGQGTLVTVSS
VL: EIVLTQSPGTLSLSPGERATLSCRASRNISSSYLAWYQQKPGQAPRLLIYGPSSRATGIPDRFSGSGSGTDFTLTISRLEPEDFTVYYCQQYGSSFTFGPGTKVDIKR
notes: Bin 4
B5: hu anti-<huCDH19> 26D1.1 (Ab ID 13882) (antibody, human IgG1, lambda, V domains shown)
VH: QVQLVQSGAEVKKPGASVKVSCKASRYTFTSYYMSWVRQAPGQGLEWMGIIHPSGGDTTYAQKFQGRVTMTGDTSTSTVYMELSSLRSEDTAVYYCARGGIKLWLHFDYWGQGTLVTVSS
VL: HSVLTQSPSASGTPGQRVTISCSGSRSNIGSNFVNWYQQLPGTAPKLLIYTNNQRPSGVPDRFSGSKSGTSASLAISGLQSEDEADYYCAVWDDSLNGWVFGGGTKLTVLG
notes: huIgG1z / huLLC-C2; Bin 2
B6: hu anti-<huCDH19> 25F8.1 (1-469)(F90Y) VH::huIgG1z + 25F8.1 (1-235)(K45Q,S102A,D111E) VL::huLLC-C2 (Ab ID 14096) (antibody, V domains shown)
VH: B5 VH with R26G, M34I, S35H, H52N, D57S, T59R, G72R, K102Q
VL: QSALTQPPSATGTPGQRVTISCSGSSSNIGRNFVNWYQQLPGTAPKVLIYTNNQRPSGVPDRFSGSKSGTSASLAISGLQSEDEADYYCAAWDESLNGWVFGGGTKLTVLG
notes: Engineered variant of 25F8; the entries already carry the changes; Bin 2
B7: hu anti-<huCDH19> 4B10 (Ab ID 13590) (antibody, V domains shown)
VH: QVQLVESGGGVVQPGRSLRLSCAASGFTFSSYDMHWVRQAPGKGLEWVAVISYDGTNEYYADSVKGRFTISRDTSKNTLYLQMNSLRAEDTAVYYCARERYFDWSFDYWGQGTLVSVSS
VL: EIVLTQSPGTLSLSPGERATLSCRASQSVSNTYLAWYHQRPGQAPRLLIYGASSRATGIPDRFSGSGSGTDFALTISSLEPEDFAVYYCQQYSNSWTFGQGTKVEIKR
notes: huIgG1z / huKLC; Bin 4

Legend:
[1] = molecular target: T1, raCDH19(1-43)::FLAG::raCDH19(44-770) …; test: flow cytometry, transfected 293T cells, 2 mM CaCl2
Experimental: (§1) The following binding assay was completed in presence of 2 mM CaCl₂). […] Cells were then washed one time and the amount of cell associated Alexa647-labelled Ab was quantitated by flow cytometry. The experiments included mock transfected controls.

[2] = molecular target: T2, rhCDH19(1-43)::FLAG::rhCDH19(44-772) …; test: flow cytometry, transfected 293T cells, 2 mM CaCl2
Experimental: as §1

[3] = molecular target: T4, Human Cadherin-19 (human, UniProt Q9H159 44-772); test: FACS, endogenous CDH-19 on CHL-1 and Colo699 tumor cells
T4 construct: also called CDH19; huCDH19
Experimental: FACS binding assays were performed to evaluate the binding of the anti-Cadherin-19 receptor specific antibodies to endogenous Cadherin-19 receptor expressed on the CHL-1 tumor cell lines.
FACs assays were performed by incubating hybridoma supernatants with 10,000 to 25,000 cells in PBS/2% Fetal bovine serum/2 mM Calcium Chloride at 4° C. for one hour followed by two washes with PBS/2% Fetal bovine serum/2 mM Calcium Chloride. Cells were then treated with florochrome-labeled secondary antibodies at 4° C. followed by one wash. The cells were resuspended in 50 μl of PBS/2% FBS and antibody binding was analyzed using a FACSCalibur™ instrument.

[4] = molecular target: T5, huCDH19(44-141)::muCDH19(140-770) with Flag tag (construct B, Hu EC1) (human/mouse chimera); test: flow cytometry, transfected 293T cells
T5 construct: leader left out; the entry starts at residue 44; also called C137897
Text: (§2) The experiment included assaying the anti-CDH19 antibodies against mouse Cadherin19 to determine suitability for binning on these human/mouse chimeras.

[5] = molecular target: T6, huCDH19(44-249)::muCDH19(248-770) with Flag tag (construct C, Hu EC1-2) (human/mouse chimera); test: flow cytometry, transfected 293T cells
T6 construct: leader left out; the entry starts at residue 44; also called C137896
Text: as §2

[6] = molecular target: T3, muCDH19(44-770) with Flag tag …; test: flow cytometry, transfected 293T cells, 2 mM CaCl2
Experimental: as §1

| Binder | binding result [1] | binding result [2] | binding result [3] | binding result [4] | binding result [5] | binding result [6] |
| --- | --- | --- | --- | --- | --- | --- |
| B1 | binds | binds | binds | binds | binds |  |
| B2 | binds | binds |  |  |  | binds |
| B3 | no binding (tested: 5 ug/ml) | binds | binds | binds | binds | no binding (tested: 5 ug/ml) |
| B4 |  | binds |  |  |  |  |
| B5 | no binding (tested: 5 ug/ml) | binds | binds | binds | binds | no binding (tested: 5 ug/ml) |
| B6 | no binding (tested: 5 ug/ml) | binds |  |  |  |  |
| B7 | binds | binds | binds |  |  | no binding (tested: 5 ug/ml) |
